Data published in patent US20250282866A1 (VIGIL NEUROSCIENCE, published 2025).

Key:
human TREM2 [1] = biological target: T1, human TREM2 (human, UniProt Q9NZC2 19-174, limits assumed); test: 2nd screen 100 nM
T1 construct: also called triggering receptor expressed on myeloid cells 2
T1 sequence: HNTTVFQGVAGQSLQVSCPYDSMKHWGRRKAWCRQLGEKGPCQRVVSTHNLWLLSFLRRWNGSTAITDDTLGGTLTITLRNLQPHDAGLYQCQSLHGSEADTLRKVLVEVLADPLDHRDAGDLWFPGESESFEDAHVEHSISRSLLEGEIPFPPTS

human TREM2 [2] = biological target: T1, human TREM2; test: 1st screen (110 nM or 10 nM)

B1: V6 (antibody, V domains shown)
VH: EVQLVQSGAEVKKPGESLKISCKGSGYSFTSMWIAWVRQMPGKGLEWMGIIYPGDSDTRYSPSFQGQVTISADKSISTAYLQWSSLKASDTAMYFCARQRTFYYDSSDYFDYWGQGTLVTVSS
VL: DIQMTQSPSSVSASVGDRVTITCRASQGISSWLAWYQQKPGKAPKLLIYAASSLQNGVPSRFSGSGSGTDFTLTISSLQPEDFATYFCQQADSFPRTFGQGTKLEIK
Binding Signal (fold over 6E7 Parental antibody) (human TREM2 [1]): 0.56 fold | Binding Signal (fold over 6E7 Parental antibody) (human TREM2 [2]): 0.2 fold

B2: V21 (antibody, V domains shown)
VH: EVQLVQSGAEVKKPGESLKISCKGSGYSFTSYWIAWVRQMPGKGLEWMGIIYPGDSDTRYSPSFQGQVTISADKSISTAYLQWSSLKASDTAMYFCARQRTFYYDSSDFFDYWGQGTLVTVSS
VL: DIQMTQSPSSVSASVGDRVTITCRASQGISSWLAWYQQKPGKAPKLLIYAASSLQNGVPSRFSGSGSGTDFTLTISSLQPEDFATYFCQQADSFPRTFGQGTKLEIK
Binding Signal (fold over 6E7 Parental antibody) (human TREM2 [1]): 0.68 fold | Binding Signal (fold over 6E7 Parental antibody) (human TREM2 [2]): 0.76 fold

B3: V10 (antibody, V domains shown)
VH: EVQLVQSGAEVKKPGESLKISCKGSGYSFTSYWIAWVRQMPGKGLEWMGIIYPGDSDTRYSPSFQGQVTISADKSISTAYLQWSSLKASDTAMYFCARQRTFYYDSSDYFDYWGQGTLVTVSS
VL: DIQMTQSPSSVSASVGDRVTITCRASQGISSWLAWYQQKPGKAPKLLIYSASSLQNGVPSRFSGSGSGTDFTLTISSLQPEDFATYFCQQADSFPRTFGQGTKLEIK
Binding Signal (fold over 6E7 Parental antibody) (human TREM2 [1]): 0.7 fold | Binding Signal (fold over 6E7 Parental antibody) (human TREM2 [2]): 0.76 fold

B4: V34 (antibody, V domains shown)
VH: EVQLVQSGAEVKKPGESLKISCKGSGYSFTSYWIAWVRQMPGKGLEWMGIIYPGDSDTRYSPSFQGQVTISADKSISTAYLQWSSLKASDTAMYFCARQRTFYYDSSDYFDYWGQGTLVTVSS
VL: DIQMTQSPSSVSASVGDRVTITCRASQGISSWLAWYQQKPGKAPKLLIYAASSLQDGVPSRFSGSGSGTDFTLTISSLQPEDFATYFCQQADSFPRTFGQGTKLEIK
Binding Signal (fold over 6E7 Parental antibody) (human TREM2 [1]): 1.02 fold | Binding Signal (fold over 6E7 Parental antibody) (human TREM2 [2]): 0.34 fold

B5: V30 (antibody, V domains shown)
VH: EVQLVQSGAEVKKPGESLKISCKGSGSSFTSYWIAWVRQMPGKGLEWMGIIYPGDSDTRYSPSFQGQVTISADKSISTAYLQWSSLKASDTAMYFCARQRTFYYDSSDYFDYWGQGTLVTVSS
VL: DIQMTQSPSSVSASVGDRVTITCRASQGISSWLAWYQQKPGKAPKLLIYAASSLQNGVPSRFSGSGSGTDFTLTISSLQPEDFATYFCQQADSFPRTFGQGTKLEIK
Binding Signal (fold over 6E7 Parental antibody) (human TREM2 [1]): 0.72 fold | Binding Signal (fold over 6E7 Parental antibody) (human TREM2 [2]): 0.79 fold

B6: V7 (antibody, V domains shown)
VH: EVQLVQSGAEVKKPGESLKISCKGSGYSFTSEWIAWVRQMPGKGLEWMGIIYPGDSDTRYSPSFQGQVTISADKSISTAYLQWSSLKASDTAMYFCARQRTFYYDSSDYFDYWGQGTLVTVSS
VL: DIQMTQSPSSVSASVGDRVTITCRASQGISSWLAWYQQKPGKAPKLLIYAASSLQNGVPSRFSGSGSGTDFTLTISSLQPEDFATYFCQQADSFPRTFGQGTKLEIK
Binding Signal (fold over 6E7 Parental antibody) (human TREM2 [1]): 0.32 fold | Binding Signal (fold over 6E7 Parental antibody) (human TREM2 [2]): 0.11 fold

B7: V11 (antibody, V domains shown)
VH: EVQLVQSGAEVKKPGESLKISCKGSGYSFTSYWIAWVRQMPGKGLEWMGIIYPGDSDTRYSPSFQGQVTISADKSISTAYLQWSSLKASDTAMYFCARQRTFYYDSSDYFDYWGQGTLVTVSS
VL: DIQMTQSPSSVSASVGDRVTITCRASQGISSWLAWYQQKPGKAPKLLIYAASSLQNGVPSRFSGSGSGTDFTLTISSLQPEDFATYFCQQAASFPRTFGQGTKLEIK
Binding Signal (fold over 6E7 Parental antibody) (human TREM2 [1]): 0.42 fold | Binding Signal (fold over 6E7 Parental antibody) (human TREM2 [2]): 0.79 fold

B8: V20 (antibody, V domains shown)
VH: EVQLVQSGAEVKKPGESLKISCKGSGYSFTSYWIAWVRQMPGKGLEWMGRIYPGDSDTRYSPSFQGQVTISADKSISTAYLQWSSLKASDTAMYFCARQRTFYYDSSDYFDYWGQGTLVTVSS
VL: DIQMTQSPSSVSASVGDRVTITCRASQGISSWLAWYQQKPGKAPKLLIYAASSLQNGVPSRFSGSGSGTDFTLTISSLQPEDFATYFCQQADSFPRTFGQGTKLEIK
Binding Signal (fold over 6E7 Parental antibody) (human TREM2 [1]): 0.52 fold | Binding Signal (fold over 6E7 Parental antibody) (human TREM2 [2]): 0.18 fold

B9: V8 (antibody, V domains shown)
VH: EVQLVQSGAEVKKPGESLKISCKGSGYSFTSYWIAWVRQMPGKGLEWMGIIYPGDSDTKYSPSFQGQVTISADKSISTAYLQWSSLKASDTAMYFCARQRTFYYDSSDYFDYWGQGTLVTVSS
VL: DIQMTQSPSSVSASVGDRVTITCRASQGISSWLAWYQQKPGKAPKLLIYAASSLQNGVPSRFSGSGSGTDFTLTISSLQPEDFATYFCQQADSFPRTFGQGTKLEIK
Binding Signal (fold over 6E7 Parental antibody) (human TREM2 [1]): 0.77 fold | Binding Signal (fold over 6E7 Parental antibody) (human TREM2 [2]): 0.28 fold

B10: V9 (antibody, V domains shown)
VH: EVQLVQSGAEVKKPGESLKISCKGSGYSFTSYWIAWVRQMPGKGLEWMGIIYPGDSDTRYSPSFQGQVTISADKSISTAYLQWSSLKASDTAMYFCARQRGFYYDSSDYFDYWGQGTLVTVSS
VL: DIQMTQSPSSVSASVGDRVTITCRASQGISSWLAWYQQKPGKAPKLLIYAASSLQNGVPSRFSGSGSGTDFTLTISSLQPEDFATYFCQQADSFPRTFGQGTKLEIK
Binding Signal (fold over 6E7 Parental antibody) (human TREM2 [1]): 0.54 fold | Binding Signal (fold over 6E7 Parental antibody) (human TREM2 [2]): 0.67 fold

B11: V35 (antibody, V domains shown)
VH: EVQLVQSGAEVKKPGESLKISCKGSGYSFTSYWIAWVRQMPGKGLEWMGIIYPGDSDTRYSPSFQGQVTISADKSISTAYLQWSSLKASDTAMYFCARQRTFYYDSSDYFDYWGQGTLVTVSS
VL: DIQMTQSPSSVSASVGDRVTITCRASQGISSWLAWYQQKPGKAPKLLIYAASSLQNGVPSRFSGSGSGTDFTLTISSLQPEDFATYFCQQAYSFPRTFGQGTKLEIK
Binding Signal (fold over 6E7 Parental antibody) (human TREM2 [1]): 0.29 fold | Binding Signal (fold over 6E7 Parental antibody) (human TREM2 [2]): 0.21 fold

B12: V22 (antibody, V domains shown)
VH: EVQLVQSGAEVKKPGESLKISCKGSGYSFTSYWIAWVRQMPGKGLEWMGIIYPGDSDTRYSPSFQGQVTISADKSISTAYLQWSSLKASDTAMYFCARQRTFYYDSSDYFDYWGQGTLVTVSS
VL: DIQMTQSPSSVSASVGDRVTITCRASQGISSWLAWYQQKPGKAPKLLIYRASSLQNGVPSRFSGSGSGTDFTLTISSLQPEDFATYFCQQADSFPRTFGQGTKLEIK
Binding Signal (fold over 6E7 Parental antibody) (human TREM2 [1]): 0.71 fold | Binding Signal (fold over 6E7 Parental antibody) (human TREM2 [2]): 0.3 fold

B13: V23 (antibody, V domains shown)
VH: EVQLVQSGAEVKKPGESLKISCKGSGYSFTSYWIAWVRQMPGKGLEWMGIIYPGDSDTRYSPSFQGQVTISADKSISTAYLQWSSLKASDTAMYFCARQRTFYYDSSDYFDYWGQGTLVTVSS
VL: DIQMTQSPSSVSASVGDRVTITCRASQGISSWLAWYQQKPGKAPKLLIYAASSLQNGVPSRFSGSGSGTDFTLTISSLQPEDFATYFCQQADSFPLTFGQGTKLEIK
Binding Signal (fold over 6E7 Parental antibody) (human TREM2 [1]): 0.4 fold | Binding Signal (fold over 6E7 Parental antibody) (human TREM2 [2]): 0.4 fold

B14: V33 (antibody, V domains shown)
VH: EVQLVQSGAEVKKPGESLKISCKGSGYSFTSYWIAWVRQMPGKGLEWMGIIYPGDSDTRYSPSFQGQVTISADKSISTAYLQWSSLKASDTAMYFCARQRTFYGDSSDYFDYWGQGTLVTVSS
VL: DIQMTQSPSSVSASVGDRVTITCRASQGISSWLAWYQQKPGKAPKLLIYAASSLQNGVPSRFSGSGSGTDFTLTISSLQPEDFATYFCQQADSFPRTFGQGTKLEIK
Binding Signal (fold over 6E7 Parental antibody) (human TREM2 [1]): 0.34 fold | Binding Signal (fold over 6E7 Parental antibody) (human TREM2 [2]): 0.23 fold

B15: V42 (antibody, V domains shown)
VH: EVQLVQSGAEVKKPGESLKISCKGSGYSFTSAWIAWVRQMPGKGLEWMGIIYPGDSDTRYSPSFQGQVTISADKSISTAYLQWSSLKASDTAMYFCARQRTFYYDSSDYFDYWGQGTLVTVSS
VL: DIQMTQSPSSVSASVGDRVTITCRASQGISSWLAWYQQKPGKAPKLLIYAASSLQNGVPSRFSGSGSGTDFTLTISSLQPEDFATYFCQQADSFPRTFGQGTKLEIK
Binding Signal (fold over 6E7 Parental antibody) (human TREM2 [1]): 0.41 fold | Binding Signal (fold over 6E7 Parental antibody) (human TREM2 [2]): 0.45 fold

B16: V18 (antibody, V domains shown)
VH: EVQLVQSGAEVKKPGESLKISCKGSGYSFTSYHIAWVRQMPGKGLEWMGIIYPGDSDTRYSPSFQGQVTISADKSISTAYLQWSSLKASDTAMYFCARQRTFYYDSSDYFDYWGQGTLVTVSS
VL: DIQMTQSPSSVSASVGDRVTITCRASQGISSWLAWYQQKPGKAPKLLIYAASSLQNGVPSRFSGSGSGTDFTLTISSLQPEDFATYFCQQADSFPRTFGQGTKLEIK
Binding Signal (fold over 6E7 Parental antibody) (human TREM2 [1]): 0.42 fold | Binding Signal (fold over 6E7 Parental antibody) (human TREM2 [2]): 0.17 fold

B17: V32 (antibody, V domains shown)
VH: EVQLVQSGAEVKKPGESLKISCKGSGYSFTSYWIAWVRQMPGKGLEWMGIIYPGDSDTRYSNSFQGQVTISADKSISTAYLQWSSLKASDTAMYFCARQRTFYYDSSDYFDYWGQGTLVTVSS
VL: DIQMTQSPSSVSASVGDRVTITCRASQGISSWLAWYQQKPGKAPKLLIYAASSLQNGVPSRFSGSGSGTDFTLTISSLQPEDFATYFCQQADSFPRTFGQGTKLEIK
Binding Signal (fold over 6E7 Parental antibody) (human TREM2 [1]): 0.89 fold | Binding Signal (fold over 6E7 Parental antibody) (human TREM2 [2]): 0.82 fold

B18: V19 (antibody, V domains shown)
VH: EVQLVQSGAEVKKPGESLKISCKGSGYSFTSSWIAWVRQMPGKGLEWMGIIYPGDSDTRYSPSFQGQVTISADKSISTAYLQWSSLKASDTAMYFCARQRTFYYDSSDYFDYWGQGTLVTVSS
VL: DIQMTQSPSSVSASVGDRVTITCRASQGISSWLAWYQQKPGKAPKLLIYAASSLQNGVPSRFSGSGSGTDFTLTISSLQPEDFATYFCQQADSFPRTFGQGTKLEIK
Binding Signal (fold over 6E7 Parental antibody) (human TREM2 [1]): 0.48 fold | Binding Signal (fold over 6E7 Parental antibody) (human TREM2 [2]): 0.59 fold
